# Paper PMC8606531, “The Impact of Rare Human Variants on Barrier-To-Auto-Integration Factor 1 (Banf1) Structure and Function”
# T1: Banf1 WT (Homo sapiens, UniProt O75531 1-89)
# T1 sequence: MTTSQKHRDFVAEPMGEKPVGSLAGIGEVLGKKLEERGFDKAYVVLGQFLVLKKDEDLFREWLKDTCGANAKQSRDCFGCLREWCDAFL
# B1: Cy5 40 bp dsDNA (dsDNA)
# DNA 1: AGGAGCGCCAGACCCACCAAGAGCCCTCTATCGGTTGGGA
# DNA 2: TCCCAACCGATAGAGGGCTCTTGGTGGGTCTGGCGCTCCT
# Target: T1, Banf1 WT
# Assay: EMSA; EC50; 10 mM KH2PO4, 100 mM NaCl, 0.01% IGEPAL, 5 nM Cy5 DNA, 30 min at 37 C; pH not stated; 8% gel in 1x TBE at 4 C
# Conditions: protein: recombinant; tags: N-terminal His6 (pET-28a NdeI-XhoI); chain copies: 2; label: 5' Cy5 on forward strand; blunt
binder,measurement,value
B1,apparent K (half saturation),15.1 ± 1.96 nM
